Laboratory results published in the nanobody polyreactivity screen of Harvey et al. (2022).

Experiment: yeast display, Sf9 membrane polyspecificity reagent, FACS + sequencing; frameworks hold sequencing errors
Method in brief: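 A synthetic nanobody library was expressed on Saccharomyces cerevisiae BJ5465 by galactose induction for 36–48 hours. The library was stained for 1 hour at 4 °C with 10% biotinylated, detergent-solubilized Sf9 membrane reagent and enriched with streptavidin microbeads before FACS. Low and high (top ~1%) gates were set on anti-HA fluorescence for expression and streptavidin fluorescence for reagent binding, and each polyreactivity label reflects the gate of origin.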

QVQLVESGGGLVQAGGSLRLSCAASGNIFDRYAMGWYRQAPGKERELVAGITWSGGSTYYADSVKGRFTISRDNAKNTVYFQMTSLKPEDTAVYYCGKANYYWGQGTQVTVSS
polyreactivity (PSR sort gate): low polyreactivity

QFQLVESGGGLVQARGSLRLSCAASGITFPVYAMGWYRQAPGKEREFVASIRFSTGRTYYADSVKGRFTISRDNAKNTVYLQINSLKPEDTAVYYCRGSTQSPYNSWGQGTQVTVSS
polyreactivity (PSR sort gate): high polyreactivity

KVQLVESGGGLVQAGGSLRLSCAASGLTFSYYAMGWYRQAPGKERELVAAITRSGTRTYYADSVKGRFTISRDNAKNTVYLQMNSLKPEDTAVYYCARYLRGDFQQGEHWGQGTQVTVSS
polyreactivity (PSR sort gate): high polyreactivity

QVQLVESGGGLVQAGGSLRLSCAASGRTFGWNGMGWYRQAPGKERELVAVISSGGSTKYADSVKGRFTISRDNAKNTVYLQMNSLKPEDTAVYYCAKDWVRSGRRKMDYWGQGTQVTVSS
polyreactivity (PSR sort gate): low polyreactivity

QVQLVESAGGLVQAGGSLRLSCAASGFTFGWYAMGWYRQAPGKERELVAAISSTGGRTYYADSVKGRFTISRDNAKNTVYLQMNSLKPEDTAVYYCAAAYSYGTEYGYWGQGTQVTVSS
polyreactivity (PSR sort gate): high polyreactivity

QVQLVESGGGLVQAGGSLRLSCAASGRIFSRYAMGWYRQAPGKERELVAAISWSGGSTYYADSVKGRFTISRDNAKNNVYLQMNSLKPEDTAVYYCAARRSYSYGSWGQGTQVTVSS
polyreactivity (PSR sort gate): high polyreactivity

QVQLVESGGGLVQAGGRLRLSCAASGLIIKLYAMGWYRQAPGKERELVAAITDRGGSTYYADSVKGRFTISRDNAKNTVYLQMNSLKPEDTAVYYCAAPYAGWRDGGDYWGQGTQVTVSS
polyreactivity (PSR sort gate): low polyreactivity

QVQLVESGGGLVQAGGSLRLSCAASGSIFRGYAMGWYRQAPEKERELVAAISRRGGSTYYADSVKGRFTISRDNAKNTVYLQMNSLKPEDTAVYYCAKDGTGAGTYDYWGQGTQVTVSS
polyreactivity (PSR sort gate): low polyreactivity

QVQLVESGGGLVQAGGSLRLSCAASGRISRLYAMGWYRQAPGKERELVAAITDSGGSTYYADSVKGRFTISRDNAKNTVYLHMNSLKPEDTAVYDCAATWSNWYREYYYWGQGTQVTVSS
polyreactivity (PSR sort gate): high polyreactivity

QVQLVESGGGLVQAGGSLRLSCAASGSIFAYYAMGWSRQAPGKERELVASIDWSGDLYVRDSVKGRFTISRDNAKNTVYLQMNSLKPEDTAVYYCAADVGFGVVFYDYWGQGTQVTVSS
polyreactivity (PSR sort gate): low polyreactivity

QVQLVESGGGLVQAGGSLRISCAASGRIFYYNAIGWYRQAPGKERELVATITGSGGSSYYADSVKGRFTISRDNAKNTVYLQMKTLKPEDSAVYYCIASRWYYDFYNLDYWGQGTQVTVSS
polyreactivity (PSR sort gate): low polyreactivity

QVQLVESGGGLVQAGGSLRLTCAASGITFYGYAMGWYRQAPGKERELVAAISKSGGSTHYADSVKGRFTISRDNAKNTVYLQMNSLKPEDTAVYYCAAAYWTRLRRMDYWGQGTQVTVSS
polyreactivity (PSR sort gate): low polyreactivity

QVQLVESGGGLVQAGGSLRLSCAASGSTFSWYSMGWYRQAPGKQRELVAAISSRGGRTYYADSVKGRFTISRDNAKNTVYLQMNSLKPDDTAVYFCAARSRRGEYDYWGQGTQVTVSS
polyreactivity (PSR sort gate): high polyreactivity

QVQLVESGGGLVQAGGSLRLSCAASGSTLWRYTMGWYRQAPGKVREFVADINRGSSTNYADSVKGRFTISRDNAKNSVYLQINSLKPEDTAVYYCAAAKVHYGYNSWYYYWRQGTQVTVSS
polyreactivity (PSR sort gate): low polyreactivity

QVQLVESGGGLVQAGGSLRLSCAASGFIFGGYAMGWSRQAPGKERELVADISSSGGSTYYADSVKGRFTLSRDNAKNTVYLQMNSLKPEDTAVYDCAKVGWSRRYYYWGQGTQVTVSS
polyreactivity (PSR sort gate): high polyreactivity

QVQLVESGGGLVQAGGSLRLSCAASGSIFDSYAMGWYRQAPGKERELVAGIDSTGDTSYADSVKGRFTISRDNAKNTVYLQMNSLKPEDTAVYYCAKEYPGDSVQASDEPWGMGYWGQGTQVTVSS
polyreactivity (PSR sort gate): low polyreactivity

QVQLVDSGGGLVQAGGSLRLSCAASGSTLGENAMGWYRQAPGKERELVSAIRQSSGRTYYADSVKGRFTISRDNAKNTVYLQMNSLKPEDTAVYYCANYYWGQGTQVTVST
polyreactivity (PSR sort gate): low polyreactivity

QVQLVESGGGLVQAGGSLRLSCAATGSILEYYVMGWYRLAPGKERELVAAIRGGGSTYYADAVKGRFTISRDNAKNSVYLQMNSLKPEDTAVEYCAKDSQPARDFDYWGQGTQVTVSS
polyreactivity (PSR sort gate): low polyreactivity

QVQLVESGGGLVQAGGSLRLSCAASGSTFGLYAMGWYRQAPGKERELVAAIRWSGASTYYADSVKGRFTISRDNAKNTVYLQMNSLKPEDTAVYYCARRALGPRRGIRYDYWGQGTQVTVSS
polyreactivity (PSR sort gate): high polyreactivity

QVQLVESGGGLVQAGGSLRLSCAASGNTFLWYAMGWYRQAPGKEREFVAAIRRSGASTYYADSVKGRFTISRDNAKNTVYLQMNSLKPEDTAVYYCAAKFVYWSGAVYTRYDYWGQGTQVTVSS
polyreactivity (PSR sort gate): high polyreactivity

QVQLVESGGGLVQAGGSLLLSCAASGSTFSYYGMGWYRQAPVKERELVAAIDYSGDSTYYADSVKGRFTISRDNSKNTVFLQMNSLKPEDTAVYYCAADDYPWNRYEYWGQGTQVTVSS
polyreactivity (PSR sort gate): low polyreactivity

QVQLVESGGGLVQAGGSLRLSCAASGRIFYYAMGWYRQAPGKEREFVAAISGSGGSTNYADSVKGRFTISRDNAKNTVYLQMNSLKPEDTAVYYCNAESWSWGFIYEYEYWGQGTQVTVSW
polyreactivity (PSR sort gate): high polyreactivity

QDHLVESGGGLVQAGGSLRLSCAASGGIFYGYAMGWYRQAPGKERELVAAISTSDASTYYADSVKGRFTFSRDNAKNTVFVQMNSLKPEATAVYYCATDLPDGYDYWGQGTQVTVSS
polyreactivity (PSR sort gate): low polyreactivity

QVQLVESGGGLVQAGGSLRLSCAASGRIFYSNTMGWYRQAPGKERELVARIDTGGGSTYADSVKGRFTISRDNAKNTVYLQMNSLKPEDTAVYYCNKKGRWRSWGSTSMVSMDYWGQGTQVTVSS
polyreactivity (PSR sort gate): low polyreactivity

QVQLQESGGGLVLAGGSLRLNCAESGYISWSFTMGWYRKPTGKEREFVAGITYGGITYYADSVKGRFTISRDNAKNTVYLEMNRLKPEDTAVYYCAAPQSYPYVYVYWGQGTEVTVSS
polyreactivity (PSR sort gate): high polyreactivity

QVQLVESGGGLVQAGGSLRLSCAASGRIFYRNVMGWYRQAPGKERELVAAISYRGGSTSYADSVKGRFTISRDNAKNTVYLPMHILKPEDTAVDYCNAARIRPAYSDREYWGQGTQVTVSS
polyreactivity (PSR sort gate): low polyreactivity

QVQLVETGGGLVHAGGSLRLSSAASGRTFVENDMGWYRQAPGKERELVAAITYRGGRTFYADSVKGSFTISRDNAKNTVYLQMNSRKPEDTAVYSCNAVRRTGGHGVYWGQGTQVTVSS
polyreactivity (PSR sort gate): high polyreactivity

QVQLVESGGGLVQAGGSLRISCAASGSISVRNVMGWYRHAPGKERELVATIRRTGGSTSYADSVKGRFTISRDNAKNTVYLQMNSLKPEDPAVYYCAAVGYTTYRRYDYWGQGTQVTVSS
polyreactivity (PSR sort gate): low polyreactivity

QVQLVEAGGGLVQAGGSLRLSCAACGSIFISYAMGWYRQAPGKERELVAAISSGGSTNYADSVKGRFTISRDNAKNTVYLQMNSLTPEDTAVYYCAADGWLWSFTGDGWWFDYWGQGTQVTVSS
polyreactivity (PSR sort gate): low polyreactivity

QVQLVESGGRLVQAGGSLRLSCAASGRIFAFYAMGWYRQAPGKERELVAAITSGGSTKYADSVKGRFTISRDNAKNTVYLQMNSLKPEDTAVYYCAAVESGYGSKRFYYWGQGTQVTVSS
polyreactivity (PSR sort gate): high polyreactivity

QVQLVESGGGLVQAGGSLRLSCAASGSTLNSYVMGWYRQAPGKERELVATIRSGSSTNYADSVKGRFTISRDNAKNTVYLQMNSLKPEDTAVYYCAGDAYSLCYDSWGQGTQVTVSS
polyreactivity (PSR sort gate): low polyreactivity

QGHLRESGGGLVQAGGSLRLTCAASGSNLWQYAMGWYRQATGKERELVAAITYSGGSTHYADSVKGRFTISRDNAKNTVYLQLNSLKPEDTAVYYCAAGSWYRYAALRYDHWGQGTQVTVST
polyreactivity (PSR sort gate): low polyreactivity
